Results taken from patent US20260193348A1 (ANTENGENE BIOLOGICS, published 2026).
Changes are numbered by the printed parent chain. Numbers in names are those of the source. Blank lines part the entries; values can stand above or below the binder they belong to.

Tests used:
[1] = biological target: T1, CD3 on T cells / Jurkat cells (human, UniProt P07766 23-207; P04234 22-171; P09693 23-182); assay: FACS on Jurkat cells expressing CD3
T1 construct: whole, on cells; Native CD3 complex on CD3+ T cells isolated from normal donors or on Jurkat cells; also called human CD3; CD3+ T cells
T1 sequence (P07766 23-207, chain 1 of 3): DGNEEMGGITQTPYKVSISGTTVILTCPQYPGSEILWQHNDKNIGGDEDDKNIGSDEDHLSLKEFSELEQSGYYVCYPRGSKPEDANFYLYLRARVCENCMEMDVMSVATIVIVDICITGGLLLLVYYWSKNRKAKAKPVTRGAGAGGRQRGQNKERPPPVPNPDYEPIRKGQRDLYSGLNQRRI
T1 sequence (P04234 22-171, chain 2 of 3): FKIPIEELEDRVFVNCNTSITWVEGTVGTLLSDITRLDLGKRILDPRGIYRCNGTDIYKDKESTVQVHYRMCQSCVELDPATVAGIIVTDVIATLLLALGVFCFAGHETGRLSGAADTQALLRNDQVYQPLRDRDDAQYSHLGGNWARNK
T1 sequence (P09693 23-182, chain 3 of 3): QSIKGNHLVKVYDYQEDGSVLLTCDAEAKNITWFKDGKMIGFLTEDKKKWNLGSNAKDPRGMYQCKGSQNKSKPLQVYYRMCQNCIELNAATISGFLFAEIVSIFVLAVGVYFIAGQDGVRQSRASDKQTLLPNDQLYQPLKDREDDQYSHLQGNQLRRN

CD20 on DoHH2 cells = biological target: T2, CD20 on DoHH2 cells (human, UniProt P11836 1-297); assay: FACS on DoHH2 cells expressing CD20 (FIG. 45E)
T2 construct: whole, on cells; Endogenous CD20 on the human DoHH2 cell line; also called DoHH2 cells expressing CD20
T2 sequence (looked up): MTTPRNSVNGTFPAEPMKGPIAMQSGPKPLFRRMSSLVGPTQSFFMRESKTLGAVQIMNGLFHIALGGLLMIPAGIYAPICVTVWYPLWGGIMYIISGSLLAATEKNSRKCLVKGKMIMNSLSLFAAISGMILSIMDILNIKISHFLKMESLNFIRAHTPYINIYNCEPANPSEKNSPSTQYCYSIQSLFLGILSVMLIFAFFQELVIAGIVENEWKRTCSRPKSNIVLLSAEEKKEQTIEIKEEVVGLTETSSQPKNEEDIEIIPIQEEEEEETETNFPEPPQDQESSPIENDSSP

GPRC5D on MM.1S cells [2] = biological target: T3, GPRC5D on MM.1S cells (human, UniProt Q9NZD1 1-345); assay: FACS on MM.1S cells
T3 construct: whole, on cells; MM.1S is called a GPRC5D positive expressed cell line and human multiple myeloma cells; also called G-protein coupled receptor family C group 5 member D
T3 sequence (Q9NZD1 whole entry): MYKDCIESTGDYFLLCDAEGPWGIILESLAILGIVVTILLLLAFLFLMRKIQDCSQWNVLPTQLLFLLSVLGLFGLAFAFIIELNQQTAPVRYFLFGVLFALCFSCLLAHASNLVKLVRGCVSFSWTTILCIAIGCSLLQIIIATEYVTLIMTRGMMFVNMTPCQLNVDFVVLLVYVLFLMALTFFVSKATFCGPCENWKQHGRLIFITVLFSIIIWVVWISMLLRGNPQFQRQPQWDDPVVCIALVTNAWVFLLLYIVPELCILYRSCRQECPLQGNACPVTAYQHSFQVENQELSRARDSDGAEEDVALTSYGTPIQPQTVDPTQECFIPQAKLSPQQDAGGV

GPRC5D on MM.1S cells [3] = biological target: T3, GPRC5D on MM.1S cells; assay: cell-based or functional assay
GPRC5D on MM.1S cells [4] = biological target: T3, GPRC5D on MM.1S cells; assay: cell-based or functional assay; remark: listed apart in the source
CD3 on Jurkat cells [5] = biological target: T4, CD3 on Jurkat cells (UniProt P07766 23-207; P04234 22-171; P09693 23-182); assay: FACS on Jurkat cells
T4 construct: whole, on cells; On the cell, CD3 stands in the TCR-CD3 complex; also called cluster of differentiation 3
T4 sequence (P07766 23-207, chain 1 of 3): as the sequence (P07766 23-207, chain 1 of 3) above
T4 sequence (P04234 22-171, chain 2 of 3): as the sequence (P04234 22-171, chain 2 of 3) above
T4 sequence (P09693 23-182, chain 3 of 3): as the sequence (P09693 23-182, chain 3 of 3) above
Protocol: (§1) The binding affinities of the generated humanized Fab-scFv-Fab bispecific antibodies were determined by FACS analysis. […] (a) Jurkat cells were washed by Staining Buffer (PBS+1% BSA) in round bottom 96-well plate. [0833] (b) Antibody dilutions and cells were added to each well, incubated at 4 degrees for 1 hour. [0834] (c) Cells were spined down at 300 g for 3 minutes, and the supernatants were discarded. [0835] (d) Cells were washed with Staining Buffer. […] (e) Step (d) was repeated and the cells were incubated for 0.5 hours at 4 degrees with secondary antibody in Staining Buffer. [0837] (f) After incubation, step (d)-(e) were repeated. […] (g) Staining Buffer was added and fluorescence signals were recorded by flow cytometry.
The binding affinities of the generated humanized Fab-scFv-Fab bispecific antibodies were determined by FACS analysis. The protocol for FACS analysis is identical to that described in Example 3.2, except that different test antibodies were used.

CD3 on Jurkat cells [6] = biological target: T4, CD3 on Jurkat cells; assay: FACS on Jurkat cells; remark: listed apart in the source
Protocol: as §1
The binding affinities of the generated humanized Fab-scFv-Fab bispecific antibodies were determined by FACS analysis. The ATG-Bis-40E9 described in Example 1 was used as positive control and hIgG1 isotype was used as negative control. The protocol for FACS analysis is described in Example 3.2 above.

GPRC5D on MM.1S cells [7] = biological target: T3, GPRC5D on MM.1S cells; assay: cell-based or functional assay; remark: listed apart in the source
GPRC5D on MM.1S cells [8] = biological target: T3, GPRC5D on MM.1S cells; assay: FACS on MM.1S cells; remark: listed apart in the source
Protocol: To evaluate the binding affinity of the generated chimeric bispecific antibody to T cells, the isolated CD3⁺ T cells were stained by antibodies and the binding affinity was determined by FACS analysis. The protocol of FACS analysis is described as follows: [0785] (a) CD3⁺ T cells were isolated from normal donors. [0786] (b) The isolated CD3⁺ T cells were washed by Staining Buffer (PBS+1% BSA) in round bottom 96-well plate. […] (c) Antibody dilutions were added to each well and mixed with the CD3+ T cells, incubated at 4 degrees for 1 hour. […] (d) Cells were spined at 300 g for 3 minutes, then the supernatants were discarded. [0789] (e) Cells were washed with Staining Buffer. [0790] (f) Step (d) was repeated, and the cells were incubated with secondary antibody in Staining Buffer for 0.5 hours at 4 degrees. [0791] (g) After incubation, step (d)-(e) were repeated. [0792] (h) Cells were resuspended in Staining Buffer and fluorescence signals were recorded by flow cytometry.
The binding affinities of the generated humanized Fab-scFv-Fab bispecific antibodies to MM.1S were evaluated by FACS analysis. The protocol for FACS analysis is identical to that described in Example 1.2, except that MM.1S were used in this example.

GPRC5D on MM.1S cells [9] = biological target: T3, GPRC5D on MM.1S cells; assay: cell-based or functional assay; remark: listed apart in the source

binding result [1]: binds | EC50 (CD20 on DoHH2 cells): 7.55 nM
B1: ATG201-Y101F-200 (bispecific antibody, human IgG1, kappa, L234A L235A)
heavy 1: not shown
heavy 2: EVQLVESGGGLVQPGRSLRLSCAASGFTFNDYAMHWVRQAPGKGLEWVSTISWNSGSIGYADSVKGRFTISRDNAKKSLYLQMNSLRAEDTALYYCAKDIQYGNYYYGMDVWGQGTTVTVSSASTKGPSVFPLAPSSKSTSGGTAALGCLVKDYFPEPVTVSWNSGALTSGVHTFPAVLQSSGLYSLSSVVTVPSSSLGTQTYICNVNHKPSNTKVDKKVEPKSCGGGGSGGGGSEVQLVQSGAEVKKPGSSVKVSCKASGYTFSSYVIHWVRQAPGQCLEWMGYINPYNDVIKYNEKFKGRVTLTSDKSTSTAYMELSSLRSEDTAVYYCARDSFYSYDGFAYWGQGTLVTVSSGGGGSGGGGSGGGGSGGGGSEIVLTQSPDFQSVTPKEKVTITCSASSSVSYMHWYQQKPDQSPKRLIYDTSKLASGVPSRFSGSGSGTDFTLTINSLEAEDAATYYCQQWSSNPPTFGCGTKVEIKGGGGSGGGGSDKTHTCPPCPAPEAAGGPSVFLFPPKPKDTLMISRTPEVTCVVVDVSHEDPEVKFNWYVDGVEVHNAKTKPREEQYNSTYRVVSVLTVLHQDWLNGKEYKCKVSNKALPAPIEKTISKAKGQPREPQVCTLPPSREEMTKNQVSLSCAVKGFYPSDIAVEWESNGQPENNYKTTPPVLDSDGSFFLVSKLTVDKSRWQQGNVFSCSVMHEALHNHYTQKSLSLSPGK
light: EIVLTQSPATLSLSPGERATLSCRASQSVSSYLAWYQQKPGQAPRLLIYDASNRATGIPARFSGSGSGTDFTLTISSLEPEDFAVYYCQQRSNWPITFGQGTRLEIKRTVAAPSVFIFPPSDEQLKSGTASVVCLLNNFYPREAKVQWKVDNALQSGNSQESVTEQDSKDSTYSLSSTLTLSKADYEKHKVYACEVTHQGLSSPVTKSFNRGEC
notes: L234A/L235A; also called ATG201-Y101F-20O

binding result [1]: binds | EC50 (CD20 on DoHH2 cells): 4.89 nM
B2: ATG201-N55S-200 (bispecific antibody, human IgG1, kappa, L234A L235A)
heavy 1: not shown
heavy 2: B1 heavy 2 with N290S, F336Y
light: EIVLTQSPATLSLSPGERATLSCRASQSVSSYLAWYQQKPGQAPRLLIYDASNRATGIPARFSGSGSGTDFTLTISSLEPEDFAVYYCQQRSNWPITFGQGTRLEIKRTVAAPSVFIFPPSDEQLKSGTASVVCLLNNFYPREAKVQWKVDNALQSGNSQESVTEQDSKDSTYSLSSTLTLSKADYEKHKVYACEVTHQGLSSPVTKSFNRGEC
notes: L234A/L235A; also called ATG201-N55S-20O

EC50 (GPRC5D on MM.1S cells [2]): 2.43 nM | Top signal (GPRC5D on MM.1S cells [2]): 1880 MFI | EC50, Jurkat-NFAT-Luciferase assay in the presence of MM.1S cells (GPRC5D on MM.1S cells [3]): 0.011 nM | Top RLU, Jurkat-NFAT-Luciferase assay in the presence of MM.1S cells (GPRC5D on MM.1S cells [3]): 564 RLU | Ratio of EC50 (relative to ATG-Bis-40E9) (CD3 on Jurkat cells [5]): 1 ratio | Ratio of Top MFI (relative to ATG-Bis-40E9) (CD3 on Jurkat cells [5]): 1 ratio | EC50 (CD3 on Jurkat cells [6]): 74.7 nM | Ratio of EC50 (relative to ATG-Bis-40E9) (GPRC5D on MM.1S cells [8]): 1 ratio | Ratio of Top MFI (relative to ATG-Bis-40E9) (GPRC5D on MM.1S cells [8]): 1 ratio | Ratio of EC50 (relative to ATG-Bis-40E9), luciferase assay on MM.1S (GPRC5D on MM.1S cells [9]): 1 ratio | Ratio of Top RLU (relative to ATG-Bis-40E9), luciferase assay on MM.1S (GPRC5D on MM.1S cells [9]): 1 ratio
B3: ATG-Bis-40E9 (bispecific antibody)
heavy: EVQLQQSGPELVKPGASVKMSCKASGYTFTSYVIHWVKQKTGQGLEWIGYFNPYNDGTKYNEEFKGKATLTSDKSSNTAYMELNSLTSDDSAVYFCARGGVRRYFDVWGAGTTVTVSS
heavy (part 1 of 2): B3 heavy
heavy (part 2 of 2): GGGGSGGGGSEVQLQLSGPELVKPGASVKMSCKASGYTFSSYVIHWVKQKPGQGLEWIGYINPYNDVIKYNEKFKGKATLTSDKSSSTAYMELSSLTSEDSAVYYCARDSYYSYDGFAYWGQGTLVTVSAGGGGSGGGGSGGGGSGGGGSQIVLTQSPAIMSASPGEKVTMTCSASSSVSYMHWYQQKSGTSPKRWIYDTSKLASGVPARFSGSGSGTSYSLTISSMEAEDAATYYCQQWSSNPPTFGGGTKVEIKGGGGSGGGGS
light: DIQMTQSPSSLSASLGERVSLTCRASQDIGSNLNWLQQEPDGTIKRLIYATFGLDSGVPKRFSGSRSGSDYSLTISSLESEDFVDYYCQQYASFPYTFGGGTKLEIK
notes: Fab-scFv-Fab format: two anti-GPRC5D Fab domains and one anti-CD3 scFv; LALA mutations; also called chimeric 2+1 bispecific antibody; parental antibody control; not shown: CH1; CL; CH1-hinge-CH2-CH3 with L234A, L235A; CH2-CH3 with L234A, L235A
IC50 of T-cell dependent cytotoxicity on MM.1S cells (GPRC5D on MM.1S cells [4]): 0.00063 nM | Top (%) target cell killing, MM.1S cells (GPRC5D on MM.1S cells [4]): 99.2% | Ratio of IC50 (relative to ATG-Bis-40E9), MM.1S cytotoxicity (GPRC5D on MM.1S cells [7]): 1 ratio | Ratio of Top cytotoxicity (relative to ATG-Bis-40E9), MM.1S cytotoxicity (GPRC5D on MM.1S cells [7]): 1 ratio

binding result [1]: binds | EC50 (CD20 on DoHH2 cells): 4.05 nM
B4: ATG201-Y101F-20R (bispecific antibody, human IgG1, kappa, L234A L235A)
heavy 1: not shown
heavy 2: QVQLQQPGAELVKPGASVKMSCKASGYTFTSYNMHWVKQTPGRGLEWIGAIYPGNGDTSYNQKFKGKATLTADKSSSTAYMQLSSLTSEDSAVYYCARSTYYGGDWYFNVWGAGTTVTVSAASTKGPSVFPLAPSSKSTSGGTAALGCLVKDYFPEPVTVSWNSGALTSGVHTFPAVLQSSGLYSLSSVVTVPSSSLGTQTYICNVNHKPSNTKVDKKVEPKSCGGGGSGGGGSEVQLVQSGAEVKKPGSSVKVSCKASGYTFSSYVIHWVRQAPGQCLEWMGYINPYNDVIKYNEKFKGRVTLTSDKSTSTAYMELSSLRSEDTAVYYCARDSFYSYDGFAYWGQGTLVTVSSGGGGSGGGGSGGGGSGGGGSEIVLTQSPDFQSVTPKEKVTITCSASSSVSYMHWYQQKPDQSPKRLIYDTSKLASGVPSRFSGSGSGTDFTLTINSLEAEDAATYYCQQWSSNPPTFGCGTKVEIKGGGGSGGGGSDKTHTCPPCPAPEAAGGPSVFLFPPKPKDTLMISRTPEVTCVVVDVSHEDPEVKFNWYVDGVEVHNAKTKPREEQYNSTYRVVSVLTVLHQDWLNGKEYKCKVSNKALPAPIEKTISKAKGQPREPQVCTLPPSREEMTKNQVSLSCAVKGFYPSDIAVEWESNGQPENNYKTTPPVLDSDGSFFLVSKLTVDKSRWQQGNVFSCSVMHEALHNHYTQKSLSLSPGK
light: QIVLSQSPAILSASPGEKVTMTCRASSSVSYIHWFQQKPGSSPKPWIYATSNLASGVPVRFSGSGSGTSYSLTISRVEAEDAATYYCQQWTSNPPTFGGGTKLEIKRTVAAPSVFIFPPSDEQLKSGTASVVCLLNNFYPREAKVQWKVDNALQSGNSQESVTEQDSKDSTYSLSSTLTLSKADYEKHKVYACEVTHQGLSSPVTKSFNRGEC
notes: CD20xCD3 Fab-scFv-Fab: two C20R Fabs, anti-CD3 scFv 40E9-L2H3-Y101F.H; L234A/L235A

binding result [1]: binds | EC50 (CD20 on DoHH2 cells): 3.13 nM
B5: ATG201-N55S-20R (bispecific antibody, human IgG1, kappa, L234A L235A)
heavy 1: not shown
heavy 2: B4 heavy 2 with N289S, F335Y
light: B4 light
notes: CD20xCD3 Fab-scFv-Fab: two C20R Fabs, anti-CD3 scFv 40E9-L2H3-N55S.H; L234A/L235A
